Data as given in US20230374148A1, “BINDING MOLECULES THAT MULTIMERISE CD45” (UCB BIOPHARMA SRL, priority 2020, published 2023).

Target: T1, human CD45 on cells (PBMC, whole blood cells, macrophages, leukaemia and lymphoma cell lines) (human, UniProt P08575 26-1306)
T1 sequence: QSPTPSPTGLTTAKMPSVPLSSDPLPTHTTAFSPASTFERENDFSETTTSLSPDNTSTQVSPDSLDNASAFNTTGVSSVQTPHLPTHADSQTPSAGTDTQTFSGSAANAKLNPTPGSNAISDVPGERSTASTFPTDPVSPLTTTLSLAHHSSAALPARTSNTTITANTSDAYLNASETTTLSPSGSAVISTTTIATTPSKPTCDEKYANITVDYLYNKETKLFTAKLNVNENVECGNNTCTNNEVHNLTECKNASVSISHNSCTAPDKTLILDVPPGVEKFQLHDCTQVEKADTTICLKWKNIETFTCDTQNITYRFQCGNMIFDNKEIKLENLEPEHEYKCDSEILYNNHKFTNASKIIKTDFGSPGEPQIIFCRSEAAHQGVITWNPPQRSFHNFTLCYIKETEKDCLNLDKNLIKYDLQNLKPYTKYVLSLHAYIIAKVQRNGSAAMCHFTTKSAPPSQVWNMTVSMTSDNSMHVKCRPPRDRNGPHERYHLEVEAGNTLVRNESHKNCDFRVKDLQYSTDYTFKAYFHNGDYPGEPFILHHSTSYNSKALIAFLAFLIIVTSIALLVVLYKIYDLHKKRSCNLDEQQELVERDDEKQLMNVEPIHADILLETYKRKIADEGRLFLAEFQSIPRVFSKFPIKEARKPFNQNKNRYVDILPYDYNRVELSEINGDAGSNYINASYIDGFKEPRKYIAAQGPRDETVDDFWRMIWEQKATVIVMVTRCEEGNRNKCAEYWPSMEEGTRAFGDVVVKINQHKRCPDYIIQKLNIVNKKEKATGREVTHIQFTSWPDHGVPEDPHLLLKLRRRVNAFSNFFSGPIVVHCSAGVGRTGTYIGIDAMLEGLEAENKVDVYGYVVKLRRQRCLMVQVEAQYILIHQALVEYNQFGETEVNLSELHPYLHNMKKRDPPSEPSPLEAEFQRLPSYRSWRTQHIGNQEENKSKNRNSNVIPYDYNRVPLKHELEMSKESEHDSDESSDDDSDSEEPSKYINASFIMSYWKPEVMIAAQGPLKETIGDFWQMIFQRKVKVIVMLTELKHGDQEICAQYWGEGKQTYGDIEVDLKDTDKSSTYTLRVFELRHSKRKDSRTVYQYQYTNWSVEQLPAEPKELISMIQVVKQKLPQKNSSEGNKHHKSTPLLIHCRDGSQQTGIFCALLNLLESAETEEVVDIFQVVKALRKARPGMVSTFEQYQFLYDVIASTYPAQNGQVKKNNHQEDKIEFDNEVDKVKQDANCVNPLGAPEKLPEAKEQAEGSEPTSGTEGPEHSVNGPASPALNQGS
Assay: cell-based or functional assay

B1: 4133-6294 IgG4P FALA Knob-in-Hole (bispecific antibody)
heavy 1: QEQLVESGGGLVQPEGSLTLTCTASGFSFSGNYYMCWVRQAPGKGLEWIGCLYTGSSGSTYYASWAKGRFTISKTSSTTVTLQMTSLTAADTATYFCARDLGYEIDGYGGLWGQGTLVTVSSASTKGPSVFPLAPCSRSTSESTAALGCLVKDYFPEPVTVSWNSGALTSGVHTFPAVLQSSGLYSLSSVVTVPSSSLGTKTYTCNVDHKPSNTKVDKRVESKYGPPCPPCPSAPEAAGGPSVFLFPPKPKDTLMISRTPEVTCVVVDVSQEDPEVQFNWYVDGVEVHNAKTKPREEQFNSTYRVVSVLTVLHQDWLNGKEYKCKVSNKGLPSSIEKTISKAKTGQPREPQVYTLPPSQEEMTKNQVSLWCLVKGFYPSDIAVEWESNGQPENNYKTTPPVLDSDGSFFLYSRLTVDKSRWQEGNVFSCSVMHEALHNHYTQKSLSLSLGK
heavy 2: EVQLVESGAELARPGASVKMSCKASGYTFTSYTMHWVKQRPGQGLEWIGYINPSSGYTEYNQKFKDKTTLTADKSSSTAYLQLSSLTSEDSAVYYCARVGDGFYPSWLAYWGQGTLVTVSSASTKGPSVFPLAPCSRSTSESTAALGCLVKDYFPEPVTVSWNSGALTSGVHTFPAVLQSSGLYSLSSVVTVPSSSLGTKTYTCNVDHKPSNTKVDKRVESKYGPPCPPCPAPEAAGGPSVFLFPPKPKDTLMISRTPEVTCVVVDVSQEDPEVQFNWYVDGVEVHNAKTKPREEQFNSTYRVVSVLTVLHQDWLNGKEYKCKVSNKGLPSSIEKTISKAKGQPREPQVYTLPPSQEEMTKNQVSLSCAVKGFYPSDIAVEWESNGQPENNYKTTPPVLDSDGSFFLVSRLTVDKSRWQEGNVFSCSVMHEALHNHYTQKSLSLSLGK
light 1: AQVLTQTPSPVSAVVGGTVSISCQASQSVYNNNNLSWYQQKPGQPPKLLIYDASKLASGVPSRFKGSGSGTQFTLTISGVQCDDAATYYCLGGYYSSGWYFAFGGGTKVVVKRTVAAPSVFIFPPSDEQLKSGTASVVCLLNNFYPREAKVQWKVDNALQSGNSQESVTEQDSKDSTYSLSSTLTLSKADYEKHKVYACEVTHQGLSSPVTKSFNRGEC
light 2: DIQMTQSPKFLLVSAGDRVTITCKASQSVRNDVAWYQQKPGQSPKLLIFYASKRYTGVPDRFTGSGYGTDFTFTISTVQAEDLAVYFCQQDYSSPTTFGGGTKLEIKRTVAAPSVFIFPPSDEQLKSGTASVVCLLNNFYPREAKVQWKVDNALQSGNSQESVTEQDSKDSTYSLSSTLTLSKADYEKHKVYACEVTHQGLSSPVTKSFNRGEC
EC50 of reduction of lymphocytes in PBMC, 24 h (UCB Cone-802): 0.09 nM | EC50 of reduction of lymphocytes in PBMC, 24 h (UCB Cone-811): 0.17 nM
